Measured values reported in US20100041873A1 (ZymoGenetics, published 2010).
Residue numbers refer to the chain shown, from its start. Several values for one entry are separate records, joined by “and”; a condition that tells them apart may be missing. Equal values may be shown once. No end group written: not given here.

T1: Human IL-21 peptide #1 (pyr30-K50) (human, N-terminal pyroGlu)
T1 construct: coated on ELISA plates; also called Peptide 1 N-Term
T1 peptide: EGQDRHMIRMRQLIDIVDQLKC

T2: Human IL-21 peptide #2 (N54-C71) (human)
T2 peptide: NDLVPEFLPAPEDVETNC

T3: Human IL-21 peptide #3 (N97-C122) (human)
T3 peptide: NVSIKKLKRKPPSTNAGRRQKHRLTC

T4: Hu IL-21 Peptide A1750 (conjugated to ovalbumin) (human, also: chemically conjugated to ovalbumin)
T4 construct: also called peptide #2 N54-C71 conjugated to ovalbumin
T4 peptide: NDLVPEFLPAPEDVETNC

T5: Hu IL-21 Peptide A1751 (conjugated to ovalbumin) (human, conjugated to ovalbumin)
T5 construct: also called peptide #3 N97-C122 conjugated to ovalbumin
T5 peptide: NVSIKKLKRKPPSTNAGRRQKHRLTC

T6: Recombinant human IL-4 (human, UniProt P05112 25-153)
T6 construct: also called Hu IL-4
T6 sequence (looked up): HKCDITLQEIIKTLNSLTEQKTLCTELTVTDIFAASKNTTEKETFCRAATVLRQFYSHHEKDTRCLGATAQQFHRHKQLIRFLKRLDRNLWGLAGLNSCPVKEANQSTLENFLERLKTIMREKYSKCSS

T7: Recombinant human IL-7 (human, UniProt P13232 26-177)
T7 construct: also called Hu IL-7
T7 sequence (looked up): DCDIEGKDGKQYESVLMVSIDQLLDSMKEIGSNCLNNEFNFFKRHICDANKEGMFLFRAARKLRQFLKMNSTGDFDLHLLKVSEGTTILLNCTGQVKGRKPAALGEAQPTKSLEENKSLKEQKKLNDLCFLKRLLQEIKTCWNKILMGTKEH

B1: Heterodimeric IL-21 soluble receptor (IL-21R/γc-Fc) (Fc fusion, not shown: a dimerising Fc or GST)
chain 1: not shown
chain 2: LNTTILTPNGNEDTTADFFLTTMPTDSLSVSTLPLPEVQCFVFNVEYMNCTWNSSSEPQPTNLTLHYWYKNSDNDKVQKCSHYLFSEEITSGCQLQKKEIHLYQTFVVQLQDPREPRRQATQMLKLQNLVIPWAPENLTLHKLSESQLELNWNNRFLNHCLEHLVQYRTDWDHSWTEQSVDYRHKFSLPSVDGQKRYTFRVRSRFNPLCGSAQHWSEWSHPIHWGSNTSKENPFLFALEA
B2: Human anti-human IL-21 monoclonal antibody 366.552.11 (antibody, V domains shown)
VH: QVQLQESGPGLVKPSETLSLTCTVSGGSISSDFWGWIRQPPGKGLEWIGYISSRGSTNYNPSLKRRVTISVDTSRNQFSLKLSSVTAADTAVYYCARSAGVTDFDFWGQGTLVTVSS
VL: DIQMTQSPSSVSASVGDRVTITCRASQGISSWLAWYQHKPGKAPKLLIYVASSLQSGVPSRFSGSGSGTDFTLTISSLQPEDFATYYCQQANSFPLTFGGGTKVEIK
notes: Hybridoma antibody, ATCC PTA-8787; isotype printed as IgG; also called 366.552.11.31
B3: Human anti-human IL-21 monoclonal antibody 362.75.1.1 (antibody, V domains shown)
VH: QLQLQESGPGLVKPSETLSLTCTVSGGSISSRTYRWGWIRQPPGKELEWIGSIYYRGSTFYNPSLKSRVTVSVDTSKNQFSLKLSSVTAADTAVYYCARQSGYSGYDWFDPWGQGTLVTVSS
VL: EIVLTQSPATLSLSPGERATLSCRASQSVSSFLAWYQQKPGQAPRLLIYDASNRATGIPARFSGSGSGTDFTLTISSLEPEDFAVYYCQQRSNWITFGQGTRLEIK
notes: Hybridoma antibody, ATCC PTA-8791; isotype printed only as IgG
B4: Human anti-human IL-21 monoclonal antibody 366.328.10 (antibody, V domains shown)
VH: EVQLVESGGGLVKPGGSLRLSCAASGFIFSSYSMNWVRQAPGKGLEWVSSITSGSYYIHYADSVKGRFTISRDNAKNSLYLQMNSLRAEDTAVYYCVRERGWGYYGMDVWGQGTTVTVSS
VL: AIQLTQSPSSLSASVGDRVTITCRASQDIDSALAWYQQKPGKAPKILIHDASSLESGVPSRFSGSGSGTDFTLTISSLQPEDFATYYCQQFNSYPYTFGQGTKLEIK
notes: Hybridoma antibody, ATCC PTA-8789; isotype printed as IgG
B5: Human anti-human IL-21 monoclonal antibody 362.78.1.44 (antibody, V domains shown)
VH: QVQLVESGGGVVQPGRSLRLSCAASGFTFSSYGMHWVRQAPGKGLEWVAFIWYDGSDKYYADSVKGRFTISRDNSKNTLYLQMNSLRAEDTAVYYCARDGDSSDWYGDYYFGMDVWGQGTTVTVSS
VL: not shown
notes: Hybridoma antibody, ATCC PTA-8790; also called clone 78
B6: Human anti-human IL-21 monoclonal antibody 362.597.3 (antibody, V domains shown)
VH: B5 VH with S31T
VL: not shown
notes: Hybridoma antibody, ATCC PTA-8786; isotype printed as IgG; also called 362.597.3.15

How the values were obtained:
[1] = molecular target: T8, Recombinant human IL-21 (human, UniProt Q9HBE4 30-162); experiment: cell-based or functional assay
[2] = molecular target: T8, Recombinant human IL-21; experiment: cell-based or functional assay; remark: listed apart in the source
[3] = molecular target: T9, Recombinant cynomolgus IL-21 (cynomolgus monkey, UniProt Q9HBE4 30-162 (human entry), limits assumed); experiment: cell-based or functional assay
[4] = molecular target: T10, Recombinant murine IL-21 (mouse, UniProt Q9ES17 18-146); experiment: cell-based or functional assay
[5] = molecular target: Recombinant rat IL-21 (rat, UniProt A3QPB9 18-146, limits assumed); experiment: cell-based or functional assay
[6] = molecular target: T8, Recombinant human IL-21; experiment: cell-based or functional assay; remark: listed apart in the source
[7] = molecular target: T8, Recombinant human IL-21; experiment: cell-based or functional assay; remark: listed apart in the source
[8] = molecular target: T11, Recombinant mutant human IL-21 (human, UniProt Q9HBE4 30-162, limits assumed); experiment: direct ELISA
T11 construct: also called IL-21 mutant; mutant human IL-21 protein
Experimental: (§1) Wells were blocked with 200 μL/well of Blocking Buffer (PBS-Tween plus 1% w/v bovine serum albumin (BSA)) for 1 hour, after which the plates were washed twice with Wash Buffer. Antibody dilutions were prepared in 5% fetal bovine serum (FBS)/Iscove's Modified Dulbecco's Media (IMDM) medium and adjusted to 1 μg/ml. […] Following 1 hour incubation at ambient temperature, the wells were aspirated and the plates washed twice as described above. Horseradish peroxidase (HRP) labeled Goat anti Mouse IgG, Fc specific or Goat anti Rat IgG, Fc specific, or Goat anti Human IgG, Fc specific (Jackson ImmunoResearch Laboratories, West Grove, Pa.) at a dilution of 1:5000 with 5% FBS/IMDM medium was then added to each well, 100 μL/well, and the plates incubated at ambient temperature for 1 hour. After removal of unbound HRP conjugated antibody, the plates were washed five times, 100 μL /well of tetra methyl benzidine (TMB) (BioFX Laboratories, Owings Mills, Md.) added to each well and the plates incubated for 3 minutes at ambient temperature. Color development was stopped by the addition of 100 μL /well of 450 nm TMB Stop Reagent (BioFX Laboratories, Owings Mills, Md.) and the absorbance values of the wells read on a Molecular Devices Spectra MAX 340 instrument at 450 nm.

[9] = molecular target: T1, Human IL-21 peptide #1 (pyr30-K50); experiment: direct ELISA
Experimental: as §1

[10] = molecular target: T2, Human IL-21 peptide #2 (N54-C71); experiment: direct ELISA
Experimental: as §1

[11] = molecular target: T3, Human IL-21 peptide #3 (N97-C122); experiment: direct ELISA
Experimental: as §1

[12] = molecular target: T4, Hu IL-21 Peptide A1750 (conjugated to …); experiment: Western blot
Experimental: (§2) For Western blots, the non-specific sites on the membranes were blocked with a buffer containing 20 mM Tris, pH 7.4, 0.5 mM EDTA, 0.5% IGEPAL CA-630, 150 mM NaCl, 0.25% gelatin, and 1% casein hydrolysate blocking solution (Western Blocking Reagent, Roche Diagnostics, Inc., Basel Switerzerland) (Blocking Buffer). The membranes were then incubated for 2 hrs at room temperature with purified monoclonal antibody (10 ng/ml or 100 ng/ml) in the Blocking Buffer followed by a 2 hr incubation with peroxidase conjugated donkey anti-human IgG (Jackson Laboratories, Bar Harbor, Me.). The membranes were washed 5 times with the Tris/EDTA/IGEPAL/NaCl/gelatin Blocking buffer which lacked the casein hydrolysate and developed with SUPERSIGNAL™ DuraWest Luminol/Enhancer/Peroxidase Solution (Pierce, Rockford, Ill.) for chemoluminescence detection. The blots were visualized using X-ray film based standard methods.

[13] = molecular target: T5, Hu IL-21 Peptide A1751 (conjugated to …); experiment: Western blot
Experimental: as §2

[14] = molecular target: T12, Recombinant human IL-2 (human, UniProt P60568 21-153); experiment: Western blot
T12 construct: also called Hu IL-2

[15] = molecular target: T6, Recombinant human IL-4; experiment: Western blot
[16] = molecular target: T7, Recombinant human IL-7; experiment: Western blot
[17] = molecular target: T13, Recombinant human IL-9 (human, UniProt P15248 19-144); experiment: Western blot
T13 construct: also called Hu IL-9

[18] = molecular target: T14, Recombinant human IL-15 (human, UniProt P40933 49-162); experiment: Western blot
T14 construct: also called Hu IL-15

[19] = molecular target: T15, Human IL-21 peptide #4 (C125-S153) (human); experiment: direct ELISA
T15 construct: also called Peptide 4 C-Term
Experimental: as §1

[20] = molecular target: T16, Hu IL-21 Peptide A1752 (conjugated to ovalbumin) (human, conjugated to ovalbumin); experiment: Western blot
T16 construct: also called peptide #4 C125-S153 conjugated to ovalbumin
Experimental: as §2

[21] = molecular target: T9, Recombinant cynomolgus IL-21; experiment: Western blot
Experimental: as §2

[22] = molecular target: T10, Recombinant murine IL-21; experiment: Western blot
Experimental: as §2

T8 sequence (Q9HBE4 30-162 limits assumed): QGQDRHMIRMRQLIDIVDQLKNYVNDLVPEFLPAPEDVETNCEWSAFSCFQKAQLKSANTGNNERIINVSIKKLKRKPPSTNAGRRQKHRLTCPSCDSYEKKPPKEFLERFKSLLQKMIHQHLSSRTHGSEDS
T16 sequence (peptide, as listed by the source): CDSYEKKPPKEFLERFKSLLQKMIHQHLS
T13 sequence (P15248 19-144 limits assumed): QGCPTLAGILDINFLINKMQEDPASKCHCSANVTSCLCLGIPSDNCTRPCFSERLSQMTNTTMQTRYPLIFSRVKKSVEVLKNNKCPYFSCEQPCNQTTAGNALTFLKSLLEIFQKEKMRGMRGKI
T9 sequence (Q9HBE4 other isoform, or with tags, fused parts or gaps limits assumed): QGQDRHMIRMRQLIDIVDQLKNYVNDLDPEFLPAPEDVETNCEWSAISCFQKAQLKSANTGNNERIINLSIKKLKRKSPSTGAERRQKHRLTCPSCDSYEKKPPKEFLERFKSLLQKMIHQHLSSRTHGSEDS
T11 sequence (Q9HBE4 other isoform, or with tags, fused parts or gaps mutant limits assumed): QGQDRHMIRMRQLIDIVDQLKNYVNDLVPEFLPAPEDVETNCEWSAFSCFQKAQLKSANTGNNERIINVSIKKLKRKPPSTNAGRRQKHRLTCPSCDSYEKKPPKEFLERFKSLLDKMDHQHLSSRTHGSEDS
T12 sequence (P60568 21-153 limits assumed): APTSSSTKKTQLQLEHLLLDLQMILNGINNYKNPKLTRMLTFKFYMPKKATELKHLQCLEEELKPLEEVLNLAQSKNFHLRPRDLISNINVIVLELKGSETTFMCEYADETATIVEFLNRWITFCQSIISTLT
T14 sequence (P40933 49-162 limits assumed): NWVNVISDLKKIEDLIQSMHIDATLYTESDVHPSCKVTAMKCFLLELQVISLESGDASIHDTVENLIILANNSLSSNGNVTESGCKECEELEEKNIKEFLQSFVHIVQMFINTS
Sequence of Recombinant rat IL-21 (A3QPB9 18-146 limits assumed): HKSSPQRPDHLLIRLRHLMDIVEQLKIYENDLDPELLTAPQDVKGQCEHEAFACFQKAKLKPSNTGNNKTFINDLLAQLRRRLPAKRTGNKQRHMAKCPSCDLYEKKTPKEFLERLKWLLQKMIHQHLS

Row | Binder | IC50 (pM), STAT3-phosphorylation assay, Expt #1 [1] [pM] | Cyno IL-21 IC50 ([cIL-21] = 100 pM), STAT-Luciferase assay [3] | IC50 (nM), B cell proliferation assay (anti-CD40 + 3.21 nM IL-21) [6] [nM] | % IgD-low, CD138+ Plasma Cells, antagonist:ligand 0.16:1 [7] [%] | % IgD-low, CD138+ Plasma Cells, antagonist:ligand 0.6:1 [7] [%] | % IgD-low, CD138+ Plasma Cells, antagonist:ligand 2.5:1 [7] [%] | % IgD-low, CD138+ Plasma Cells, antagonist:ligand 10:1 [7] [%] | binding result [8] | binding result [9] | binding result [10] | binding result [11] | binding result [12] | binding result [13] | binding result [14] | binding result [15] | binding result [16] | binding result [17] | binding result [18] | binding result [19] | binding result [20] | also measured
1 | B1 | 25 | 20 ng/mL and 385 pM | 3.5 | 66.7 | 54.2 | 41.7 | 23.4 | – | – | – | – | – | – | – | – | – | – | – | – | – | IC50 (pM), STAT3-phosphorylation assay, Expt #2 [1]: 102 pM; IC50 (pM), STAT3-phosphorylation assay, Expt #3 (96 pM IL-21) [1]: 140 pM; IC50 (pM), 24 hr STAT-Luciferase assay, Expt #2 [2]: 1830 pM; Murine IL-21 IC50 ([mIL-21] = 6.41 nM), STAT-Luciferase assay [4]: 426 ng/mL and 8.06 nM; Rat IL-21 IC50 ([rIL-21] = 1.08 nM), STAT-Luciferase assay [5]: 708 ng/mL and 13.4 nM
2 | B2 | 59 | 23 ng/mL and 156 pM | 4.75 | – | – | – | – | no binding (tested: 1 ug/ml mAb) | no binding (tested: 1 ug/ml mAb) | no binding (tested: 1 ug/ml mAb) | no binding (tested: 1 ug/ml mAb) | no binding (tested: 10 or 100 ng/ml mAb) | no binding (tested: 10 or 100 ng/ml mAb) | no binding | no binding | no binding | no binding | no binding | – | – | IC50 (pM), 24 hr STAT-Luciferase assay, Expt #1 [2]: 2400 pM
3 | B3 | – | – | – | – | – | – | – | no binding (tested: 1 ug/ml mAb) | no binding (tested: 1 ug/ml mAb) | no binding (tested: 1 ug/ml mAb) | no binding (tested: 1 ug/ml mAb) | no binding (tested: 10 or 100 ng/ml mAb) | no binding (tested: 10 or 100 ng/ml mAb) | no binding | no binding | no binding | no binding | no binding | binds | binds | binding result [21]: binds
4 | B4 | 210 | 15 ng/mL and 100 pM | 0.71 | 52.1 | 41.4 | 20.2 | 15.4 | binds | no binding (tested: 1 ug/ml mAb) | no binding (tested: 1 ug/ml mAb) | no binding (tested: 1 ug/ml mAb) | no binding (tested: 10 or 100 ng/ml mAb) | no binding (tested: 10 or 100 ng/ml mAb) | no binding | no binding | no binding | no binding | no binding | no binding (tested: 1 ug/ml mAb) | no binding (tested: 10 or 100 ng/ml mAb) | binding result [22]: no binding (tested: 10 or 100 ng/ml mAb)
5 | B5 | – | – | – | 42.8 | 34.1 | 15.5 | 13.7 | – | no binding (tested: 1 ug/ml mAb) | no binding (tested: 1 ug/ml mAb) | – | no binding (tested: 10 or 100 ng/ml mAb) | – | – | – | – | – | – | – | no binding (tested: 10 or 100 ng/ml mAb) | –
6 | B6 | – | – | – | – | – | – | – | – | no binding (tested: 1 ug/ml mAb) | no binding (tested: 1 ug/ml mAb) | – | no binding (tested: 10 or 100 ng/ml mAb) | – | – | – | – | – | – | – | – | –
